Test results published in patent publication US20160145343A1.

How the values were obtained:
[1] = target: BSA (UniProt P02769); experiment: ELISA on coated BSA, antibody 0.01 mg/ml, mean of 3
[2] = target: Synthetic peptide …; experiment: ELISA on coated peptide, antibody 0.01 mg/ml, mean of 3
[3] = target: Synthetic peptide (…)2; experiment: as above
[4] = target: Normal MUC1 on non-transformed MCF-10A cells and on normal tissue (human) (UniProt P15941); experiment: flow cytometry, MCF10a cells
[5] = target: SEQ ID NO: 346 glycopeptide with TF-antigen at Thr9; experiment: ELISA on coated glycopeptide, antibody 0.01 mg/ml, mean of 3
[6] = target: SEQ ID NO: 346 glycopeptide with TF-antigen at Ser5; experiment: as above
[7] = target: SEQ ID NO: 346 glycopeptide with TF-antigen at Thr16; experiment: as above
[8] = target: SEQ ID NO: 346 glycopeptide with TF-antigen at Thr4; experiment: as above
[9] = target: SEQ ID NO: 346 glycopeptide with TF-antigen at Thr4 and Thr9; experiment: as above
[10] = target: SEQ ID NO: 346 glycopeptide with Tn-antigen at Thr4, Thr9 and Thr16; experiment: as above
[11] = target: Normal MUC1 on non-transformed MCF-10A cells and on normal tissue (human) (UniProt P15941); experiment: immunohistochemistry, colon tissue microarray, normal samples
[12] = target: Normal MUC1 on non-transformed MCF-10A cells and on normal tissue (human) (UniProt P15941); experiment: immunohistochemistry, colon tissue microarray
[13] = target: Normal MUC1 on non-transformed MCF-10A cells and on normal tissue (human) (UniProt P15941); experiment: flow cytometry, MCF10a cells, secondary antibody only

Sequence of Synthetic peptide (…)2 (peptide, as listed by the source): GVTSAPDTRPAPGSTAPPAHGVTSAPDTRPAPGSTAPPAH
Sequence of BSA (P02769 25-607 limits assumed): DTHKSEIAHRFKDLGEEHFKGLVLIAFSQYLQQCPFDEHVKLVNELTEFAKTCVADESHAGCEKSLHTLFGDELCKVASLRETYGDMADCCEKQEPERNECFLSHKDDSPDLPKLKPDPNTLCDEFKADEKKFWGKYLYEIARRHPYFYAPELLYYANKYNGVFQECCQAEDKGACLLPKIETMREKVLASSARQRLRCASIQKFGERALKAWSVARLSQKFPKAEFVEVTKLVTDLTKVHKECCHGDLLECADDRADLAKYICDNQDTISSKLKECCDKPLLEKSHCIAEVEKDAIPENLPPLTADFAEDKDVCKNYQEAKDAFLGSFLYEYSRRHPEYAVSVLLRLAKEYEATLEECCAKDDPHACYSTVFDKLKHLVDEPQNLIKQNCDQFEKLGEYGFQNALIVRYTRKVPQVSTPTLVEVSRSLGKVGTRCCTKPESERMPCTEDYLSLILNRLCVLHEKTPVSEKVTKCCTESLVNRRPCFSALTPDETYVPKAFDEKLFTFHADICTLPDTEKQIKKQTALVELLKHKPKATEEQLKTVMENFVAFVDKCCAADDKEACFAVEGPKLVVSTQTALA

Substance	ELISA absorbance at 450 nm [1] [absorbance]	ELISA absorbance at 450 nm [2] [absorbance]	ELISA absorbance at 450 nm [3] [absorbance]	percentage of APC+ stained cells [4] [%]	ELISA absorbance at 450 nm [5] [absorbance]	ELISA absorbance at 450 nm [6] [absorbance]	ELISA absorbance at 450 nm [7] [absorbance]	ELISA absorbance at 450 nm [8] [absorbance]	ELISA absorbance at 450 nm [9] [absorbance]	ELISA absorbance at 450 nm [10] [absorbance]	MUC1+ samples stained (of 3 MUC1+ normal samples) [11]	samples MUC1+ by staining (of 6 normal samples) [12]	percentage of APC+ stained cells [13] [%]
VU-3C6 (Abcam), mouse anti-MUC1 antibody	0.2	1.5	2.3	99.2	2.4	2	1.5	2	2.4	2.4			
HMPV (BD Biosciences), mouse anti-MUC1 antibody											3	3	
Hu-2nd. (APC-labeled secondary antibody only control for the human antibodies)													0.25
VU-4H5 (Abnova), mouse anti-MUC1 antibody	0.1	1.9	2.5	3.85	0.1	1.8	1.9	1.8	0.1	0.1			
M-2nd. (APC-labeled secondary antibody only control for the mouse antibodies)													0.6
